# Assay results: patent US20230407373A1 (priority 2020, published 2023)
# B1: PABPC4: host protein, UniProt Q13310 (protein, UniProt Q13310 1-644, looked up)
# Polyadenylate-binding protein …: MNAAASSYPMASLYVGDLHSDVTEAMLYEKFSPAGPVLSIRVCRDMITRRSLGYAYVNFQQPADAERALDTMNFDVIKGKPIRIMWSQRDPSLRKSGVGNVFIKNLDKSIDNKALYDTFSAFGNILSCKVVCDENGSKGYAFVHFETQEAADKAIEKMNGMLLNDRKVFVGRFKSRKEREAELGAKAKEFTNVYIKNFGEEVDDESLKELFSQFGKTLSVKVMRDPNGKSKGFGFVSYEKHEDANKAVEEMNGKEISGKIIFVGRAQKKVERQAELKRKFEQLKQERISRYQGVNLYIKNLDDTIDDEKLRKEFSPFGSITSAKVMLEDGRSKGFGFVCFSSPEEATKAVTEMNGRIVGSKPLYVALAQRKEERKAHLTNQYMQRVAGMRALPANAILNQFQPAAGGYFVPAVPQAQGRPPYYTPNQLAQMRPNPRWQQGGRPQGFQGMPSAIRQSGPRPTLRHLAPTGSECPDRLAMDFGGAGAAQQGLTDSCQSGGVPTAVQNLAPRAAVAAAAPRAVAPYKYASSVRSPHPAIQPLQAPQPAVHVQGQEPLTASMLAAAPPQEQKQMLGERLFPLIQTMHSNLAGKITGMLLEIDNSELLHMLESPESLRSKVDEAVAVLQAHHAKKEAAQKVGAVAAATS
# B2: RALY: host protein, UniProt Q9UKM9 (protein, UniProt Q9UKM9 2-306, looked up)
# RNA-binding protein Raly: SLKLQASNVTNKNDPKSINSRVFIGNLNTALVKKSDVETIFSKYGRVAGCSVHKGYAFVQYSNERHARAAVLGENGRVLAGQTLDINMAGEPKPDRPKGLKRAASAIYSGYIFDYDYYRDDFYDRLFDYRGRLSPVPVPRAVPVKRPRVTVPLVRRVKTNVPVKLFARSTAVTTSSAKIKLKSSELQAIKTELTQIKSNIDALLSRLEQIAAEQKANPDGKKKGDGGGAGGGGGGGGSGGGGSGGGGGGGSSRPPAPQENTTSEAGLPQGEARTRDDGDEEGLLTHSEEELEHSQDTDADDGALQ
# B3: SND1: host protein, UniProt Q7KZF4 (protein, UniProt Q7KZF4 2-910, looked up)
# Staphylococcal nuclease …: ASSAQSGGSSGGPAVPTVQRGIIKMVLSGCAIIVRGQPRGGPPPERQINLSNIRAGNLARRAAATQPDAKDTPDEPWAFPAREFLRKKLIGKEVCFTIENKTPQGREYGMIYLGKDTNGENIAESLVAEGLATRREGMRANNPEQNRLSECEEQAKAAKKGMWSEGNGSHTIRDLKYTIENPRHFVDSHHQKPVNAIIEHVRDGSVVRALLLPDYYLVTVMLSGIKCPTFRREADGSETPEPFAAEAKFFTESRLLQRDVQIILESCHNQNILGTILHPNGNITELLLKEGFARCVDWSIAVYTRGAEKLRAAERFAKERRLRIWRDYVAPTANLDQKDKQFVAKVMQVLNADAIVVKLNSGDYKTIHLSSIRPPRLEGENTQDKNKKLRPLYDIPYMFEAREFLRKKLIGKKVNVTVDYIRPASPATETVPAFSERTCATVTIGGINIAEALVSKGLATVIRYRQDDDQRSSHYDELLAAEARAIKNGKGLHSKKEVPIHRVADISGDTQKAKQFLPFLQRAGRSEAVVEYVFSGSRLKLYLPKETCLITFLLAGIECPRGARNLPGLVQEGEPFSEEATLFTKELVLQREVEVEVESMDKAGNFIGWLHIDGANLSVLLVEHALSKVHFTAERSSYYKSLLSAEEAAKQKKEKVWAHYEEQPVEEVMPVLEEKERSASYKPVFVTEITDDLHFYVQDVETGTQLEKLMENMRNDIASHPPVEGSYAPRRGEFCIAKFVDGEWYRARVEKVESPAKIHVFYIDYGNREVLPSTRLGTLSPAFSTRVLPAQATEYAFAFIQVPQDDDARTDAVDSVVRDIQNTQCLLNVEHLSAGCPHVTLQFADSKGDVGLGLVKEGLVMVEVRKEKQFQKVITEYLNAQESAKSARLNLWRYGDFRADDADEFGYSR
# B4: FAM120A: host protein, UniProt Q9NZB2 (protein, UniProt Q9NZB2 1-1118, looked up)
# Constitutive coactivator of …: MGVQGFQDYIEKHCPSAVVPVELQKLARGSLVGGGRQRPPQTPLRLLVDADNCLHRLYGGFYTDWVSGGQWNHMLGYLAALAKACFGGNIELFVFFNGALEKARLHEWVKRQGNERQTAQQIVSHVQNKGTPPPKVWFLPPVCMAHCIRLALIRFHVKVAQSIEDHHQEVIGFCRENGFHGLVAYDSDYALCNIPYYFSAHALKLSRNGKSLTTSQYLMHEVAKQLDLNPNRFPIFAALLGNHILPDEDLASFHWSLLGPEHPLASLKVRAHQLVLPPCDVVIKAVADYVRNIQDTSDLDAIAKDVFQHSQSRTDDKVIRFKRAIGYYSATSKPMSFHPPHYLAARPGPFGMPGMVPPHVPPQMLNIPQTSLQAKPVAPQVPSPGGAPGQGPYPYSLSEPAPLTLDTSGKNLTEQNSYSNIPHEGKHTPLYERSSPINPAQSGSPNHVDSAYFPGSSTSSSSDNDEGSGGATNHISGNKIGWEKTGSHSEPQARGDPGDQTKAEGSSTASSGSQLAEGKGSQMGTVQPIPCLLSMPTRNHMDITTPPLPPVAPEVLRVAEHRHKKGLMYPYIFHVLTKGEIKIAVSIEDEANKDLPPAALLYRPVRQYVYGVLFSLAESRKKTERLAFRKNRLPPEFSPVIIKEWAAYKGKSPQTPELVEALAFREWTCPNLKRLWLGKAVEDKNRRMRAFLACMRSDTPAMLNPANVPTHLMVLCCVLRYMVQWPGARILRRQELDAFLAQALSPKLYEPDQLQELKIENLDPRGIQLSALFMSGVDMALFANDACGQPIPWEHCCPWMYFDGKLFQSKLLKASREKTPLIDLCDGQADQAAKVEKMRQSVLEGLSFSRQSHTLPFPPPPALPFYPASAYPRHFGPVPPSQGRGRGFAGVCGFGGPYGETVATGPYRAFRVAAASGHCGAFSGSDSSRTSKSQGGVQPIPSQGGKLEIAGTVVGHWAGSRRGRGGRGPFPLQVVSVGGPARGRPRGVISTPVIRTFGRGGRYYGRGYKNQAAIQGRPPYAASAEEVAKELKSKSGESKSSAMSSDGSLAENGVMAEEKPAPQMNGSTGDARAPSHSESALNNDSKTCNTNPHLNALSTDSACRREAALEAAVLNKEE
# B5: LRRC47: host protein, UniProt Q8N1G4 (protein, UniProt Q8N1G4 2-583, looked up)
# Leucine-rich …: AAAAVSESWPELELAERERRRELLLTGPGLEERVRAAGGQLPPRLFTLPLLHYLEVSGCGSLRAPGPGLAQGLPQLHSLVLRRNALGPGLSPELGPLPALRVLDLSGNALEALPPGQGLGPAEPPGLPQLQSLNLSGNRLRELPADLARCAPRLQSLNLTGNCLDSFPAELFRPGALPLLSELAAADNCLRELSPDIAHLASLKTLDLSNNQLSEIPAELADCPKLKEINFRGNKLRDKRLEKMVSGCQTRSILEYLRVGGRGGGKGKGRAEGSEKEESRRKRRERKQRREGGDGEEQDVGDAGRLLLRVLHVSENPVPLTVRVSPEVRDVRPYIVGAVVRGMDLQPGNALKRFLTSQTKLHEDLCEKRTAATLATHELRAVKGPLLYCARPPQDLKIVPLGRKEAKAKELVRQLQLEAEEQRKQKKRQSVSGLHRYLHLLDGNENYPCLVDADGDVISFPPITNSEKTKVKKTTSDLFLEVTSATSLQICKDVMDALILKMAEMKKYTLENKEEGSLSDTEADAVSGQLPDPTTNPSAGKDGPSLLVVEQVRVVDLEGSLKVVYPSKADLATAPPHVTVVR
# Test system: SARS-CoV-2 gRNA
# Assay type: binding
# Conditions: not given
row,Molecule,enrichment in SARS-CoV-2 Probe I RNP capture
1,B1,found in the SARS-CoV-2 experiments
2,B2,found in the SARS-CoV-2 experiments
3,B3,found in the SARS-CoV-2 experiments
4,B4,found in the SARS-CoV-2 experiments

# Same assay, conditions: […]; LC-MS/MS; Probe I sample (first 199 lines of Table 2)
row,Molecule,target (unweighted spectral count of the protein in the RNP capture)
1,B2,33
2,B3,16
3,B5,14

# Test system: SARS-CoV-2 gRNA and sgRNAs
# Assay type: binding
# Conditions: not given
row,Molecule,enrichment in SARS-CoV-2 Probe II RNP capture
1,B1,found in the SARS-CoV-2 experiments
2,B2,found in the SARS-CoV-2 experiments
3,B3,found in the SARS-CoV-2 experiments
4,B4,found in the SARS-CoV-2 experiments

# Same assay, conditions: Probe II capture; […]; LC-MS/MS LFQ
row,Molecule,target (unweighted spectral count in RNP capture)
1,B2,28
2,B5,13

# Same assay, conditions: no-probe control pull-down, used as background for Probe II
row,Molecule,background (unweighted spectral count in control)
1,B2,1
2,B3,1
3,B5,1

# Test system: HCoV-OC43 gRNA and sgRNA
# Assay type: binding
# Conditions: 24 hpi; type n_24_v; tested against no-probe control; FDR<10%
row,Molecule,"target (unweighted spectral count, OC43 Probe II capture)"
1,B5,4

# Same assay, conditions: 36 hpi; type n_36_v; tested against no-probe control; FDR<10%
row,Molecule,"target (unweighted spectral count, OC43 Probe II capture)"
1,B1,11
2,B2,23
3,B3,57
4,B4,18

# Same assay, conditions: OC43 Probe II, 12 hpi (type n_12_v), infected cells; tested against no-probe control
row,Molecule,target (unweighted spectral count)
1,B2,4
2,B3,27
3,B4,4

# Same assay, conditions: OC43 Probe II, 24 hpi (type n_24_v), infected cells; tested against no-probe control
row,Molecule,target (unweighted spectral count)
1,B1,6
2,B2,14
3,B3,37
4,B4,18

# Same assay, conditions: type n_48_v; 48 hpi; OC43 Probe II capture on infected cells
row,Molecule,"target (unweighted spectral count, OC43 Probe II)"
1,B1,11
2,B2,24
3,B3,84
4,B4,33

# Same assay, conditions: type n_48_v; 48 hpi; no-probe control on infected cells
row,Molecule,"background (unweighted spectral count, no-probe control)"
1,B1,1
2,B2,2
3,B3,6
4,B4,2

# Same assay, conditions: type s_36_m; HCoV-OC43-infected HCT-8 cells, 36 hpi, Probe II
row,Molecule,target (spectral count)
1,B1,11
2,B2,23
3,B3,57
4,B4,19
5,B5,7

# Same assay, conditions: type s_36_m; uninfected-probe control, 36 hpi, Probe II
row,Molecule,background (spectral count)
1,B1,1
2,B2,2
3,B3,1
4,B4,2
5,B5,1

# Test system: gRNA of HCoV-OC43
# Assay type: binding
# Conditions: type g_36_m; HCoV-OC43-infected HCT-8 cells, 36 hpi, Probe I
row,Molecule,target (spectral count)
1,B1,12
2,B2,28
3,B3,16
4,B4,23

# Same assay, conditions: type g_36_m; uninfected-probe control, 36 hpi, Probe I
row,Molecule,background (spectral count)
1,B1,2
2,B2,3
3,B3,3
4,B4,2

# Same assay, conditions: type n_48_v: 48 hours post-infection, infected cells, OC43 Probe I; unweighted spectral count
row,Molecule,"target (spectral count, OC43 Probe I RNP capture)"
1,B1,11
2,B2,31
3,B3,25
4,B4,29

# Same assay, conditions: type n_48_v: 48 hours post-infection, no-probe control on infected cells
row,Molecule,"background (spectral count, no-probe control)"
1,B1,1
2,B2,2
3,B3,6
4,B4,2
